Reference: the supplement of paper PMC12764529
± gives the half width of the 95% confidence interval.

Assay: folding stability dG unfold from chymotrypsin proteolysis; higher = more stable
In short: (§1)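 Only designs with AlphaFold2 dimer inter-PAE above 15 were retained; each was a mini-protein under 80 residues with no cysteine, in a PA-tagged cDNA display construct. After digestion with trypsin and chymotrypsin and sequencing, K50 was inferred by Bayesian fitting of counts, and unfolding free energy was derived per protease or combined against a sequence-predicted unfolded-state K50 and a shared folded-state K50.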

Going from “SMKIKIYVAPPGYVVVRITGPNGFYIPIPAKDPDEAKAKLEELINNLQERNGHKPDIDVVPFPPGQEIGDSA [r9_786_TrROS]” to “SAGGSAGGSAPKPIEITFPAKSLEEAKIAAEEIKRAFEELEDVKVEVEYDPETGTVTVRVYGSAGGSAGGSA [r18_368_TrMRF]”, the “folding stability dG unfold” value rises from 2.22 ± 0.1 kcal/mol to 3.58 ± 0.07 kcal/mol.

First: SIYIMLPVPPGKPYKLSIEIEMPDNGRPYEYDGTFNPENGWVMFPVRFPDNGHPIPPEDFKVKVELEPPKSA [r9_928_TrROS]
Second: SAGGSAGGSAGMTVPPELSVTITRSPEGSLRVESPVPDRELTIPPDVPLTVSPDNVVTVASAGGSAGGSAGG [r17_49_JUSTAS]
The “folding stability dG unfold” value of the first is higher: 2.45 ± 0.14 kcal/mol for the first, 0.783 ± 0.017 kcal/mol for the second.

Compared with “DVVIDIDELKKAIEKAKPGEVLELTVKVKDKATGKEYTVRVTVTVNPDGKTVTVTVVNEETGEVIETITLPS [r1_165_TrROS_Hall]”, “SAGGSAGGSAGGMYRIKVTTKDGRERVIEVKPGEEITLEELRKAGLSEEEIERVEIEEVSAGGSAGGSAGGS [r10_565_TrROS_Hall]” is lower in “folding stability dG unfold” value: 5.23 ± 0.22 kcal/mol for the first, 1.85 ± 0.051 kcal/mol for the second.

First: SAGGSAGGSMSTTETTVTEVTITVRSDGKVSREVKVTVTTTTTITPAGGTATVTTTTTRTPLESAGGSAGGS [r12_409_JUSTAS]
Second: SAGGSAGGSAGIKIEWEQMPGGYMQYKVTIPDPNGKPLKIDVHYKSPEDAEEKAKELLKSSAGGSAGGSAGG [r11_819_TrROS]
The “folding stability dG unfold” value of the first is higher: 1.3 ± 0.018 kcal/mol for the first, 0.386 ± 0.26 kcal/mol for the second.

First: SAGGSAGGSAMLTIPVTTPEEARELAEELLRRGYLRVEPTEDGDVTVIHPDGVPTRILVPTESAGGSAGGSA [r18_126_TrMRF]
Second: SAGGSEPPKIKKIKDINVKHERHNDRPYWEVKIRIKLKNGNTAEIDIEMPGMPPEEAREQIKDILKSAGGSA [r2_26_TrROS]
The “folding stability dG unfold” value of the first is lower: 0.551 ± 0.11 kcal/mol for the first, 0.872 ± 0.089 kcal/mol for the second.

First: SAGKPKKKKRTITIPIEHNPNNGNFTIKIRWPGRPVTVPFPGDDPEEMLDNMLNELENRLGWPIDEVEISAG [r5_251_TrROS]
Second: SAGMLTLRVVLPKEEAEARARALAEELRRRLGLPPGAKIEVKVVEYDEETGEVVVEVTIEVELPPGVEPSAG [r5_537_TrROS_Hall]
The “folding stability dG unfold” value of the first is lower: -0.116 ± 0.27 kcal/mol for the first, 3.64 ± 0.051 kcal/mol for the second.

First: SAGGSAGGSELPVESIETETYEDPSTGVKTVREKYPGGYVVTKTLYVPPDGPPIELPVEVRPESAGGSAGGS [r12_111_JUSTAS]
Second: SAGGSAEVRVVAEPLPDDYLLVLVEFDSPEVLPEALEAIPGVVEVRAYRFLEEGRPRYRVLALVPASAGGSA [r15_344_TrMRF]
The “folding stability dG unfold” value of the first is lower: 0.63 ± 0.083 kcal/mol for the first, 2.02 ± 0.059 kcal/mol for the second.

Compared with “SAGAVRPDEPVTVTVTVEVDPETGFVRVTFDAAAPDGITVEALIPPDGPVLVRVRRPGSRETVEVVLPASAG [r5_55_TrMRF]”, “MKPLTPEEVKKIAEGIAKEIEKAAKALGIDKVEVPVKIEKLPDGGYKIIIEVKLYKDDKKIGTFPIEIYIDS [r1_364_TrMRF]” is lower in “folding stability dG unfold” value: 3.31 ± 0.045 kcal/mol for the first, 3.1 ± 0.14 kcal/mol for the second.

Assay: folding stability dG unfold (combined trypsin and chymotrypsin); higher = more stable
In short: as §1

Compared with “SAGGSAGGSPLDIEIKMEFHPDHGYWEMEIKIPGNGREINIHYQYEGGKPQITSPEQILDAIKSAGGSAGGS [r20_131_TrROS]”, “SAGNSNTRYIVRIKIKKYNPETGKIEEIEIDVPISDDDLNIPVEKIIEALKKAFPNTEIEAEITKVPASAGG [r19_189_TrMRF]” is higher in “folding stability dG unfold” value: 1.24 ± 0.24 kcal/mol for the first, 3.74 ± 0.17 kcal/mol for the second.

Going from “SAGGSAMTITIKIENEDVTIPSSKSKEEILKAIKENPDVPVTVTLPDGTPVTLSPEELEKLIKEEKSAGGSA [r15_36_JUSTAS]” to “SAGGSSYSVAQSPGPARLYSVPQPDGRVVEVDVEELPGGLLRVRVPDDPVPRLFPASLSLADIVSLSAGGSA [r2_338_JUSTAS]”, the “folding stability dG unfold” value falls from 1.11 ± 0.11 kcal/mol to 0.866 ± 0.032 kcal/mol.

Compared with “SAGGSAEIEITVTVPPEMTEEEIKEQLEAELQRLTGEKVEIVDIRVEEVNGELTVTVKIKIEPAPPSAGGSA [r15_105_TrROS_Hall]”, “SAANTEEITITVPLTDPETGEERTVTIPVKYVNTNKPYKTPNGSTKTIPVPKSTVIKEAEEEAKKIFESSSA [r9_698_JUSTAS]” is lower in “folding stability dG unfold” value: 2.85 ± 0.3 kcal/mol for the first, -0.369 ± 0.56 kcal/mol for the second.

Compared with “SAGGSLPLPPGATVETTEVDPANPDRTYKTTTTFTPVPGNTLLATPVVTDPETGTTTTTTTTVPLALGSAGG [r13_268_JUSTAS]”, “SAGGSAGGSAGGGKKVKVIIAADKPEEAEKAIEKLEKETDLPLEDVIVIPREEAEKLGLASAGGSAGGSAGG [r7_84_TrMRF]” is lower in “folding stability dG unfold” value: 0.64 ± 0.13 kcal/mol for the first, -0.553 ± 0.47 kcal/mol for the second.

First: SAGGKGKAVPFEIEFEAPGGKKVKAKITRIDLPDKPIYRVEVEVDGKKITYTATEDEAANLTFTPGGSAGGS [r8_257_TrMRF]
Second: SAGGSAGGSAGMVIEDPSGVTTVVTFDTSVPVVTTTTLTKDPNSNNYTTTTTTTPVTVPVSAGGSAGGSAGG [r17_491_JUSTAS]
The “folding stability dG unfold” value of the first is higher: 1.92 ± 0.16 kcal/mol for the first, 1.06 ± 0.073 kcal/mol for the second.

First: SKIEIEVFPEEGFIRIRLEAENLTEEELKDAIIEFIKSLGFPAEVEILRIEPSGNTIRIEALVKVEPGYLSA [r9_347_TrMRF]
Second: SAGGSAGGSAGGKVYFLPDNTVVYELPDGLYLAVTVNENGEPSRTLYRVLSPTEIKPFPLSAGGSAGGSAGG [r7_423_TrMRF]
The “folding stability dG unfold” value of the first is higher: 2.97 ± 0.093 kcal/mol for the first, 1.72 ± 0.035 kcal/mol for the second.

Compared with “SMKPVKITEVTEDTITVTVTVYDKETNRLVKVTAEITFDKETKKLTIKVKVEVLPPLSEEQRKALEEALKSA [r9_1038_TrROS_Hall]”, “SEITIKLKVENLSEEELKKLAEELAKEGLFEITSIKVENGYVTITIKKKPKPPPKPEKKKVVFDKDGKPVSA [r9_830_TrROS_Hall]” is lower in “folding stability dG unfold” value: 2.74 ± 0.17 kcal/mol for the first, 2.2 ± 0.14 kcal/mol for the second.

First: SASPDETVILEKVLPPSASPEEVEKEREEIREKLESLGAKVEVTIEPDPETGTIPIKITITKEQYEKLKSAG [r14_602_JUSTAS]
Second: SMKIKIYVAPPGYVVVRITGPNGFYIPIPAKDPDEAKAKLEELINNLQERNGHKPDIDVVPFPPGQEIGDSA [r9_786_TrROS]
The “folding stability dG unfold” value of the first is lower: 0.034 ± 0.15 kcal/mol for the first, 1.93 ± 0.15 kcal/mol for the second.

Going from “SAGGSAGGSAPKPIEITFPAKSLEEAKIAAEEIKRAFEELEDVKVEVEYDPETGTVTVRVYGSAGGSAGGSA [r18_368_TrMRF]” to “SIYIMLPVPPGKPYKLSIEIEMPDNGRPYEYDGTFNPENGWVMFPVRFPDNGHPIPPEDFKVKVELEPPKSA [r9_928_TrROS]”, the “folding stability dG unfold” value falls from 3.38 ± 0.088 kcal/mol to 2.07 ± 0.23 kcal/mol.

First: SAGGSAGGSAGMTVPPELSVTITRSPEGSLRVESPVPDRELTIPPDVPLTVSPDNVVTVASAGGSAGGSAGG [r17_49_JUSTAS]
Second: DVVIDIDELKKAIEKAKPGEVLELTVKVKDKATGKEYTVRVTVTVNPDGKTVTVTVVNEETGEVIETITLPS [r1_165_TrROS_Hall]
The “folding stability dG unfold” value of the first is lower: 0.655 ± 0.041 kcal/mol for the first, > 6 kcal/mol for the second.

First: SAGGSAGGSAGGMYRIKVTTKDGRERVIEVKPGEEITLEELRKAGLSEEEIERVEIEEVSAGGSAGGSAGGS [r10_565_TrROS_Hall]
Second: SAGGSAGGSMSTTETTVTEVTITVRSDGKVSREVKVTVTTTTTITPAGGTATVTTTTTRTPLESAGGSAGGS [r12_409_JUSTAS]
The “folding stability dG unfold” value of the first is higher: 1.84 ± 0.092 kcal/mol for the first, 1.19 ± 0.051 kcal/mol for the second.

“SAGGSAGGSAGIKIEWEQMPGGYMQYKVTIPDPNGKPLKIDVHYKSPEDAEEKAKELLKSSAGGSAGGSAGG [r11_819_TrROS]” and “SAGGSAGGSAMLTIPVTTPEEARELAEELLRRGYLRVEPTEDGDVTVIHPDGVPTRILVPTESAGGSAGGSA [r18_126_TrMRF]” are within error of each other in “folding stability dG unfold” value: 0.333 ± 0.2 kcal/mol for the first, 0.558 ± 0.059 kcal/mol for the second.

“SAGGSEPPKIKKIKDINVKHERHNDRPYWEVKIRIKLKNGNTAEIDIEMPGMPPEEAREQIKDILKSAGGSA [r2_26_TrROS]” and “SAGKPKKKKRTITIPIEHNPNNGNFTIKIRWPGRPVTVPFPGDDPEEMLDNMLNELENRLGWPIDEVEISAG [r5_251_TrROS]” are within error of each other in “folding stability dG unfold” value: 0.938 ± 0.36 kcal/mol for the first, 0.429 ± 0.23 kcal/mol for the second.

Compared with “SAGMLTLRVVLPKEEAEARARALAEELRRRLGLPPGAKIEVKVVEYDEETGEVVVEVTIEVELPPGVEPSAG [r5_537_TrROS_Hall]”, “SAGGSAGGSELPVESIETETYEDPSTGVKTVREKYPGGYVVTKTLYVPPDGPPIELPVEVRPESAGGSAGGS [r12_111_JUSTAS]” is lower in “folding stability dG unfold” value: 3.98 ± 0.095 kcal/mol for the first, 0.425 ± 0.23 kcal/mol for the second.

First: SAGGSAEVRVVAEPLPDDYLLVLVEFDSPEVLPEALEAIPGVVEVRAYRFLEEGRPRYRVLALVPASAGGSA [r15_344_TrMRF]
Second: SAGAVRPDEPVTVTVTVEVDPETGFVRVTFDAAAPDGITVEALIPPDGPVLVRVRRPGSRETVEVVLPASAG [r5_55_TrMRF]
The “folding stability dG unfold” value of the first is lower: 1.8 ± 0.06 kcal/mol for the first, 3.06 ± 0.072 kcal/mol for the second.

For “MKPLTPEEVKKIAEGIAKEIEKAAKALGIDKVEVPVKIEKLPDGGYKIIIEVKLYKDDKKIGTFPIEIYIDS [r1_364_TrMRF]”, the “folding stability dG unfold” value was 2.9 ± 0.39 kcal/mol.
